Experimental data: patent US8772007 (dated 2014)

Target: the molecule itself
Assay: self-association; Sephadex 200 sizing column, fractions assayed for pNB activity; standards 669 kDa 16 ml, 158 kDa 24 ml, 43 kDa 26 ml, 14 kDa 32 ml

Binder	elution volume [mL]
Moraxella bovis Mbo (AAK53448) (enzyme, Described as an outer membrane localized autotransporter protein; also called pET26_Mbo) KEFSQVIIFGDSLSDTGRLKDMVARKDGTLGNTLQPSFTTNPDPVWSSLFAQSYGKTASPNTPDNPTGTNYAVGGARSGSEVNWNGFVNVPSTKTQITDHLTATGGKADPNTLYAIWIGSNDLISASQATTTAEAQNAIKGAVTRTVIDIETLNQAGATTILVPNVPDLSLTPRAIYGESLMAGVQDKAKLASSLYNSGLFEALNQSTANIIPANTFALLQEATTNKEAFGFKNTQGVACQMPARTTGADDVASTSLACTKANLIENGANDTYAFADDIHPSGRTHRILAQYYRSIMDAPTHMGKLSGELVKTGSAHDRHVYRQLDRLSGSQHSIWANVYASDRTDPTTQIGLDVAGSSSHTGAYLSHQNQDYVLDDTLSSDVKTIGMGLYHRHDIGNVRLKGVAGIDRLSVDTHRHIDWEGTSRSHTADTTARRFHAGLQASYGIDMGKATVRPLIGVHAQKVKVNDMTESESTLSTAMRFGEQEQKSLQGEIGVDVAYPISPALTLTGGIAHAHEFNDDERTINATLTSIREYTKGFNTSVSTDKSHATTAHLGVQGQLGKANIHAGVHATHQDSDTDVGGSLGVRLMF	24
S261_M2aA12 metagenomic GDSL-type esterase (enzyme, Metagenomic clone; also called pET26_m2aA12) MKNILAFGDSLTWGFVAGQDARHPFETRWPNALAAGLGGKARVIEEGQNGRTTVFDDAATFESRNGSVALPLLLISHQPLDLVIIMLGTNDIKFAARCRAFDASMGMERLIQIVRSANYMKGYKIPEILIISPPSLVPTQDEWFNDLWGHAIAESKLFAKHYKRVAEELKVHFFDAGTVAVADKTDGGHLDAVNTKAIGVALVPVVKSILAL	24
Sinorhizobium meliloti RSM02162 (G00355) (enzyme, Synthetic gene G00355, expressed in E. coli from pMC355rbs; also called pMC355rbs) MVEKRSVLCFGDSLTWGWIPVKESSPTLRYPYEQRWTGAMAARLGDGYHIIEEGLSARTTSLDDPNDARLNGSTYLPMALASHLPLDLVIIMLGTNDTKSYFHRTPYEIANGMGKLVGQVLTCAGGVGTPYPAPKVLVVAPPPLAPMPDPWFEGMFGGGYEKSKELSGLYKALADFMKVEFFAAGDCISTDGIDGIHLSAETNIRLGHAIADKVAALF	24
Sinorhizobium meliloti SmeI (SMa1993) (enzyme) MTINSHSWRTLMVEKRSVLCFGDSLTWGWIPVKGSSPTLRYPYEQRWTGAMAARLGDGYHIIEEGLSARTTSLDDPNDARLNGSTYLPMALASHLPLDLVIIMLGTNDTKSYFHRTPYEIANGMGKLVGQVLTCAGGVGTPYPAPKVLVVAPPPLAPMPDPWFEGMFGGGYEKSKELSGLYKALADFMKVEFFAAGDCISTDGIDGIHLSAETNIRLGHAIADKVAALF	24
Sinorhizobium meliloti SmeII (Q92XZ1) (enzyme, Expressed in E. coli from pET26_SmeII; also called pET26_SmeII) MEETVARTVLCFGDSNTHGQVPGRGPLDRYRREQRWGGVLQGLLGPNWQVIEEGLSGRTTVHDDPIEGSLKNGRTYLRPCLQSHAPLDLIIIMLGTNDLKRRFNMPPSEVAMGIGCLVHDIRELSPGRTGNDPEIMIVAPPPMLEDLKEWESIFSGAQEKSRKLALEFEIMADSLEAHFFDAGTVCQCSPADGFHIDEDAHRLLGEALAQEVLAIGWPDA	24
Mesorhizobium loti Mlo I (Q98MY5) (enzyme, Expressed in E. coli from pET26_Mlo; also called pET26_Mlo; pET26_MlO) MKTVLCYGDSLTWGYNAEGGRHALEDRWPSVLQAALGAGVQVIADGLNGRTTAFDDHLAGADRNGARLLPTVLTTHAPIDLIIFMLGANDMKPWIHGNPVAAKQGIQRLIDIVRGHDYPFDWPAPQILIVAPPVVSRTENADFKEMFAGGDDASKFLAPQYAALADEAGCGFFDAGSVAQTTPLDGVHLDAENTREIGKALTPIVRVMLEL	24
Salmonella typhimurium Stm (AAC38796) (enzyme, Described as an outer membrane localized autotransporter protein; also called Sty) FDSLTVIGDSLSDTGNNGRWTWDSGQNKLYDEQLAERYGLELSPSSNGGSNYAAGGATATPELNPQDNTADQVRQWLAKTGGKADHNGLYIHWVGGNDLAAAIAQPTMAQQIAGNSATSAAAQVGLLLDAGAGLVVVPNVPDISATPMLLEAVITAGLGAAAPPALKAALDALAEGATPDFASRQQAIRKALLAAAATVSSNPFIQQLLVEQLLAGYEAAAGQASALTDYYNQMEEKGLEQHGGNIARADINGLFKEILANPQAFGLTNTVGMACPPGVSASACSSAMPGFNASQDYVFADHLHPGPQVHTIIAQYIQSIIAAPVQATYLNQSVQSMAQGSRTTLDSRYQQLRQGENPVGSLGMFGGYSGGYQRYDNNEADGNGNHNNLTVGVDYQLNEQVLLGGLIAGSLDKQHPDDNYRYDARGFQAAVFSHLRAGQAWLDSDLHFLSAKFSNIQRSITLGALRRVEEGETNGRLSGASLTSGYDFVMVPWLTTGPMLQYAWDYSHVNGYSEKLNTSTSMRFGDQNAHSQVGSAGWRLDLRHSIIHSWAQINYRRQFGDDTYVANGGLKSTALTFSRDGKTQDKNWVDIAIGADFPLSATVSAFAGLSQTAGLSDGNQTRYNVGFSARF	24

target: S279_M70aE8 metagenomic GDSL-type esterase; assay: as above

Binder	elution volume [mL]
S279_M70aE8 metagenomic GDSL-type esterase (enzyme) MPKIAKLAPSDVIVAFGDSLTFGTGATEAESYPIVLAQLIGRTVVRAGVPGEVTEGGLARLTDVIEEHKPKLIIVCLGGNDMLRKVQEDQTRANLRAIIKTIKAQGIAVVLVGVPKPALVTSAPPFYEEIAKEFGIPYEGKIVTDVLYQRDQKSDSIHPNAKGYRRMAEAIATLLKKSGAI	32
